Assay results from patent US20150260731A1 (ACUMEN PHARMACEUTICALS, published 2015).

Biological target: T1, amyloid β-derived diffusible ligands (ADDLs), oligomers of Aβ1-42
T1 construct: number of chains not fixed; also called Aβ oligomers; Aβ1-42 oligomers
Test: sandwich ELISA, 6E10 as capture and as detection antibody, Aβ oligomers titrated (log RFU axis)

B1: 6E10 (antibody, V domains shown)
VH: EVQLQQSGAELVKPGASVKLCTASGFNIKDTYIHWVKQRPEQGLEWIGRFDPVNVNTRYDSRFRGKATITSDASSNTAYLHLNSLTSEDTAVYYCSRSYYNGRRRFTYWGQGTLVTVSA
VL: DIVMTQSPSSLTVTAGEKVALTCKASQSLLSSGNQKNYLTWYQQKPGQPPKLLIYWASIRESGVPDRFTGSGSGTFFTLTISSVQAEDLAVYYCQNDYNYPFTFGSGTKLEIK
  EC50 (read off the curve): ~5 nM
